Results from patent US20220001039A1, “COMPOSITIONS AND METHODS FOR DETECTING ACE2 EXPRESSION PROFILES” (Washington University, priority 2020, published 2022).
Read-outs that look alike come from different tables or passages of the source.

Experiments:
[1] = system: HEK293-hACE2 xenografts; design: species or system mice; settings: mouse, in vivo
Protocol: Tumors were monitored and imaging commenced after reaching >200 mm3. […] PET images were reconstructed by an iterative three-dimensional maximum a priori algorithm. […] At 1, 4, and 20 h post-injection, the animals were sacrificed for tissue dissection. The organs of interest were collected, rinsed, blotted, weighed, and counted with a γ-counter (Perkin Elmer Wizard2). The total injected radioactivity per animal was determined from the measured radioactivity in an aliquot of the injectate. Data were expressed as a percent of injected activity per gram of tissue (% IA/g).

[2] = target: T1, ACE2 (Homo sapiens, UniProt Q9BYF1); design: from tissue; host or cells: organs of hACE2 transgenic mice, imaged in vivo by PET; species or system mice; settings: mouse, in vivo
T1 sequence (Q9BYF1 18-805): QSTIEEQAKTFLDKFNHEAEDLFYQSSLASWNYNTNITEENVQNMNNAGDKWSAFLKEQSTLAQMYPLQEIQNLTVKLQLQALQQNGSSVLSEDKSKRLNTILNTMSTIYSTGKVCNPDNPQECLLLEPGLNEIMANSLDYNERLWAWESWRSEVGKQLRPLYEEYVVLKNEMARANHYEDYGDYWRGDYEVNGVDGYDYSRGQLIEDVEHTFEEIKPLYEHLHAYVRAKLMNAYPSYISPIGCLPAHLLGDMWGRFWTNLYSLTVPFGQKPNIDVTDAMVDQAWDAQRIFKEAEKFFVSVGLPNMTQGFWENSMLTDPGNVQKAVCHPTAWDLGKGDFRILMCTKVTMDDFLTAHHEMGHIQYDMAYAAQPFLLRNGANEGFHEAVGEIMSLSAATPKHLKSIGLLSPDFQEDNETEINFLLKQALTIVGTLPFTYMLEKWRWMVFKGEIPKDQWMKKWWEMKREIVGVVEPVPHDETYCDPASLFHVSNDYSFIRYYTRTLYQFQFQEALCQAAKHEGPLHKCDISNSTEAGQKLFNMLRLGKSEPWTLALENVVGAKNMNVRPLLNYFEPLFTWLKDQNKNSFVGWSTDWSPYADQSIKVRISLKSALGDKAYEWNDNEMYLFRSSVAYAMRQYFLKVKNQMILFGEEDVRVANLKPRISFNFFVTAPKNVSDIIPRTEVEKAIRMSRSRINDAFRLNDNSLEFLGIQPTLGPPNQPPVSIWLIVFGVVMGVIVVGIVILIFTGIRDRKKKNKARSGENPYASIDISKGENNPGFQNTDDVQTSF
Excerpt: PET images were reconstructed by an iterative three-dimensional maximum a priori algorithm.

[3] = in vivo
Excerpt: Ex vivo biodistribution analysis of the tracer in these hACE2 expressing (and vehicle control) tumors recapitulated these imaging findings (FIG. 5A).

[4] = Acute toxicity test / body weight monitoring in mice; format: in vivo
Protocol: The experiment was carried out in 10 mice at 4-weeks of age. […] The injection was repeated on day 0, day 4, day 11, day 18 and day 25, and the weight of the mice was recorded.

[5] = clinical; settings: human, in vivo, iv, total radioactivity, SUVmax
[6] = target: T1, ACE2; settings: in vivo
[7] = target: T1, ACE2; settings: in vivo; remark: listed apart in the source
[8] = target: T1, ACE2; test: 68Ga-HZ20 PET/CT in healthy volunteers (SUVmax)
[9] = format: physicochemical
Protocol: The solution was analyzed by radio-HPLC to assess the radiochemical purity. The HPLC was eluted with water-CH3CN system (Phase A: 0.1% TFA H2O; Phase B: 0.1% TFA CH3CN) using gradient elution (0-5 min 20% B; 5-10 min 20%-80% B; 10-12 min 80% B; 12-15 min 80%-20% B) at a flow rate of 1.0 mL/min. The radiolabeling yield was 59.9±3.9% (non-decay corrected, n=10) and the radiochemical purity was over 95%. […] At 1 h, 2 h, and 4 h time points, 10 μL aliquot was analyzed by radio-HPLC to assess the radiochemical purity.

[10] = healthy volunteers average, 90 min

## CC(C)C[C@@H]1NC(=O)[C@@H]2CCCN2C(=O)[C@H](CO)NC(=O)[C@@H](NC(=O)[C@H](Cc2c[nH]cn2)NC(=O)[C@H](CO)NC(=O)[C@H](Cc2ccc(O)cc2)NC(=O)[C@H](CC(=O)O)NC(=O)CNC(=O)CCC(C(=O)O)N2CCN(CC(=O)O)CCN(CC(=O)O)CC2)CSSC[C@@H](C(=O)N[C@H](C(=O)N[C@@H](Cc2ccc(O)cc2)C(=O)N2CCC[C@H]2C(=O)N[C@@H](CC(=O)O)C(=O)N2CCC[C@H]2C(=O)N[C@@H](CCC(=O)O)C(=O)NCC(=O)NCC(=O)NCC(N)=O)[C@@H](C)O)NC(=O)[C@H](CCCCN)NC(=O)[C@H](Cc2c[nH]c3ccccc23)NC(=O)[C@H](Cc2c[nH]c3ccccc23)NC(=O)[C@@H]2CCCN2C(=O)[C@H](Cc2ccc(O)cc2)NC(=O)[C@H](Cc2ccc(O)cc2)NC(=O)[C@H](CCCNC(=N)N)NC1=O (stereo partly shown) [64Cu-HZ20, metal not drawn]
[1]
  clearance from the blood pool: rapid
  hACE2 tumor binding: Greater hACE2 tumor binding
  kidney clearance: greater kidney clearance
  signal distribution by PET: highest signal in the kidneys, high intensity in HEK293-hACE2 xenografts, and moderate in liver
[2]
  accumulation in hACE2 transgenic mice compared to wild-type strain: significantly higher accumulation in the heart, lung, liver, and intestine
[3]
  tissue retention by imaging or organ counting: limited or very low tissue retention

## CC(=O)NCC(=O)N[C@@H](CC(=O)O)C(=O)N[C@@H](Cc1ccc(O)cc1)C(=O)N[C@@H](CO)C(=O)N[C@@H](Cc1cnc[nH]1)C(=O)N[C@H]1CSSC[C@@H](C(=O)N[C@H](C(=O)N[C@@H](Cc2ccc(O)cc2)C(=O)N2CCC[C@H]2C(=O)N[C@@H](CC(=O)O)C(=O)N2CCC[C@H]2C(=O)N[C@@H](CCC(=O)O)C(=O)NCC(=O)NCC(=O)NCC(N)=O)[C@@H](C)O)NC(=O)[C@H](CCCCN)NC(=O)[C@H](Cc2c[nH]c3ccccc23)NC(=O)[C@H](Cc2c[nH]c3ccccc23)NC(=O)[C@@H]2CCCN2C(=O)[C@H](Cc2ccc(O)cc2)NC(=O)[C@H](Cc2ccc(O)cc2)NC(=O)[C@H](CCCNC(=N)N)NC(=O)[C@H](CC(C)C)NC(=O)[C@@H]2CCCN2C(=O)[C@H](CO)NC1=O [DX600]
[4]; 200 μg/200 μL on day 0, 4, 11, 18 and 25
  body weight, experimental group versus control group: no significant difference
[4]; experimental group n=5
  body weight, start of monitoring: 26.5 ± 5.2 g
[4]; experimental group n=5, 25 days
  body weight, end of monitoring: 41.2 ± 3.1 g

## CC(C)C[C@@H]1NC(=O)[C@@H]2CCCN2C(=O)[C@H](CO)NC(=O)[C@@H](NC(=O)[C@H](Cc2c[nH]cn2)NC(=O)[C@H](CO)NC(=O)[C@H](Cc2ccc(O)cc2)NC(=O)[C@H](CC(=O)O)NC(=O)CNC(=O)CN2CCN(CC(=O)O)CCN(CC(=O)O)CCN(CC(=O)O)CC2)CSSC[C@@H](C(=O)N[C@H](C(=O)N[C@@H](Cc2ccc(O)cc2)C(=O)N2CCC[C@H]2C(=O)N[C@@H](CC(=O)O)C(=O)N2CCC[C@H]2C(=O)N[C@@H](CCC(=O)O)C(=O)NCC(=O)NCC(=O)NCC(N)=O)[C@@H](C)O)NC(=O)[C@H](CCCCN)NC(=O)[C@H](Cc2c[nH]c3ccccc23)NC(=O)[C@H](Cc2c[nH]c3ccccc23)NC(=O)[C@@H]2CCCN2C(=O)[C@H](Cc2ccc(O)cc2)NC(=O)[C@H](Cc2ccc(O)cc2)NC(=O)[C@H](CCCNC(=N)N)NC1=O [68Ga-HZ20, metal not drawn]
[5]; both, gallbladder
  SUV at 1.5 h: 2.14 ± 0.16 SUV
[5]; both, other organs (relatively low uptake)
  SUV: < 1.5 SUV
[5]; both, renal cortex, corpus luteum, and testis (high uptake)
  SUV: > 2.5 SUV
[5]; female, breast, gallbladder, ovary, nasal mucosa, and esophagus (median uptake)
  SUV: 1.5 SUV
[5]; male, conjunctiva
  SUV: 1.5 SUV
[6]
  SUVmax difference right minus left, confidence interval, eyes: −0.09 to 0.10
  SUVmax difference right minus left, confidence interval, lungs: −0.02 to 0.10
  SUVmax difference right minus left, confidence interval, renal cortex: 3.77 to 10.90
  SUVmax difference right minus left, confidence interval, testis: −0.38 to 0.25
  SUVmax, breast: 2.72
  SUVmax, lung: only low SUVmax
  SUVmax, small intestine: 0.48
  SUVmax, testis: 5.57
  blood-brain barrier penetration: poor blood-brain barrier penetration
[7]
  SUVmax, gallbladder: 4.32
  SUVmax, left testis: 8.65
  SUVmax, renal cortex: 18.40
  SUVmax, renal cortex, left kidney: 11.59
  SUVmax, renal cortex, right kidney: 18.40
  SUVmax, right testis: 8.79
[8]; female volunteers <50 years, 90 min
  SUVmax, breast, young group: 2.21±0.25
[8]; female volunteers ≥50 years, 90 min
  SUVmax, breast, old group: 1.35±0.22
[8]; healthy females, 90 min
  SUVmax, ovary: 2.12±1.42
  SUVmax, uterus: 2.41±0.34
[8]; healthy males, 90 min
  SUVmax, testis: 4.46±0.30
[8]; healthy volunteers
  SUVmax, left testis: 4.58±0.40
  SUVmax, renal cortex, left kidney: 22.18±1.78
  SUVmax, renal cortex, right kidney: 25.67±1.39
  SUVmax, right testis: 4.51±0.54
[8]; [10]
  SUVmax, conjunctiva: 1.71±0.08
  SUVmax, esophagus: 1.63±0.11
  SUVmax, liver: 1.59±0.14
  SUVmax, pancreas: 1.63±0.24
  SUVmax, rectum: 1.46±0.13
  SUVmax, renal cortex: 25.67±1.39
  SUVmax, renal medulla: 18.34±1.42
[9]
  stability: stable within 2 h
[4]; mouse, in vivo
  acute toxicity test: well tolerated

## CC(C)C[C@H](NC(=O)[C@@H]1CCCN1C(=O)[C@H](CO)NC(=O)[C@H](CS)NC(=O)[C@H](Cc1c[nH]cn1)NC(=O)[C@H](CO)NC(=O)[C@H](Cc1ccc(O)cc1)NC(=O)[C@H](CC(=O)O)NC(=O)CNC(=O)CCC(C(=O)O)N1CCN(CC(=O)O)CCN(CC(=O)O)CC1)C(=O)N[C@@H](CCCNC(=N)N)C(=O)N[C@@H](Cc1ccc(O)cc1)C(=O)N[C@@H](Cc1ccc(O)cc1)C(=O)N1CCC[C@H]1C(=O)N[C@@H](Cc1c[nH]c2ccccc12)C(=O)N[C@@H](Cc1c[nH]c2ccccc12)C(=O)N[C@@H](CCCCN)C(=O)N[C@@H](CS)C(=O)N[C@H](C(=O)N[C@@H](Cc1ccc(O)cc1)C(=O)N1CCC[C@H]1C(=O)N[C@@H](CC(=O)O)C(=O)N1CCC[C@H]1C(=O)N[C@@H](CCC(=O)O)C(=O)NCC(=O)NCC(=O)NCC(N)=O)[C@@H](C)O (stereo partly shown) [64Cu-HZ-19, metal not drawn]
[1]
  clearance from the blood pool: rapid
  liver retention: increased liver retention
